According to PMC4102529, “FRET Based Quantification and Screening Technology Platform for the Interactions of Leukocyte Function-Associated Antigen-1 (LFA-1) with InterCellular Adhesion Molecule-1 (ICAM-1)” (PLoS ONE, 2014):

Target: human recombinant ICAM-1 (D1-D2-Fc), Alexa Fluor 555 conjugate (human) (UniProt P05362)
Assay: FRET or BRET; steady-state, in solution competition screening, 96-well plate; Alexa Fluor 488-LFA-1 (100 nM) mixed with peptide (0.02, 0.2, 2, 20 µM), then incubated with Alexa Fluor 555-D1-D2-Fc (100 nM) for 30 min in the dark; PBS pH 7.4, 1 mM EGTA, 2 mM Mg2+; inhibition efficiency from the FRET efficiency

Sequence of human recombinant ICAM-1 (D1-D2-Fc), Alexa Fluor 555 conjugate (human) (P05362 28-532): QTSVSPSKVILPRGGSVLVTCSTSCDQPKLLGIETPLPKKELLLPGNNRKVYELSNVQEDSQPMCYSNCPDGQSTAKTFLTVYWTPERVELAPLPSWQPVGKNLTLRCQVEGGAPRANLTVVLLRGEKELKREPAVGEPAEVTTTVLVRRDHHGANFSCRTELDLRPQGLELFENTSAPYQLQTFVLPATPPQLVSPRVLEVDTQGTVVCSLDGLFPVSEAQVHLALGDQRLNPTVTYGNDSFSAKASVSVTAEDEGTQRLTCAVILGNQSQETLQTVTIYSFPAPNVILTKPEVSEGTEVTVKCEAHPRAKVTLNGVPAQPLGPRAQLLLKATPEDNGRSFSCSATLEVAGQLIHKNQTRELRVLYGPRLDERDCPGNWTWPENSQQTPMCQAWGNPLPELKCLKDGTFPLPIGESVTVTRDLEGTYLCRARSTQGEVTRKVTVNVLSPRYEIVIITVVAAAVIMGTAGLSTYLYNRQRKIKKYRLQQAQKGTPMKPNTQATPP

Row | Binder | inhibition efficiency of the LFA-1/D1-D2-Fc interaction at 0.02 µM peptide | inhibition efficiency of the LFA-1/D1-D2-Fc interaction at 0.2 µM peptide | inhibition efficiency of the LFA-1/D1-D2-Fc interaction at 2 µM peptide | inhibition efficiency of the LFA-1/D1-D2-Fc interaction at 20 µM peptide
1 | APLFYGEQRG [CD11a(456–465) peptide] | 12.2% | 20.3% | 36.5% | 51.4%
2 | ITDGEATDSGNIDAAKDIIRYIIGI [CD11a(237–261) peptide] | 40.8% | 47% | 53.2% | 65.1%
